The values that follow are results of earlier work, collected in publication PMC5512170.

The target in the data set is SNX27 PDZ (Homo sapiens) (UniProt Q96L92). In words: fluorescence polarization. (In general: Polarisation of emitted light reports the rotation of a fluorescent probe.)

On to ß2-AR tail C-tail (from UniProt P07550), for which the Kd was 17 µM.

By Kd is commonly meant the concentration at which binding is half-saturated.
